Key:
MS2 coat protein [1] = assay: apparent KD of MS2 coat protein, switch ON state; designed switch direction (-1 OFF switch, 1 ON switch): 1; higher = weaker reporter binding; conditions: FMN input: 0 or 200 uM; Eterna round: R93 (includes R88 designs)
Method in brief: (§1)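 In 100 mM Tris-HCl pH 7.5 with 80 mM KCl and 4 mM MgCl2, and without or with constant ligand, SNAP-549-labelled MS2 coat protein was titrated in twofold steps from 0.7 or 1.5 nM to 3 µM. Per-step times went from 0.8–1.5 h down to 10–20 min. The RNA switches were transcribed on-chip from Illumina sequencing clusters, and apparent KD is the per-design median of normalised cluster binding-curve fits.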

MS2 coat protein [2] = assay: apparent KD of MS2 coat protein, switch OFF state (with FMN for OFF switches, without FMN for ON switches); designed switch direction (-1 OFF switch, 1 ON switch): 1; higher = weaker reporter binding; conditions: FMN input: 0 or 200 uM; Eterna round: R93 (includes R88 designs)
Method in brief: as §1

| Sequence | apparent KD of MS2 coat protein (MS2 coat protein [1]) [nM] | apparent KD of MS2 coat protein (MS2 coat protein [2]) [nM] |
| --- | --- | --- |
| AAAAUAAAAUAAAAGGAUAUAAAAUAAAAAACAUGAGGAUCACCCAUGUAAAAACAUGGGUGAAAAAAGAAGGAAAAAUAAAAAA [SS2: 70 No MS2] | 36.7 | 1.74 |
| AGGAGACAUGAGGAUCACCCAUGUGAGAAGAGGCGAGGAUAUCGAAAGAAAGAAGAGAAACGAGAAGGCGCGAGCU [salish99-SS1-024] | 24.4 | 29.6 |
| AUUUUACAUGAGGAUCACCCAUGUUUUGGUGGAUCAGGAUAUAGAUUGAAUGAGUUUUAGCUAGAAGGGAUAUAUA [JR_SS001_Sub506] | 111 | 110 |
| UAUCCGGCAGUGUAGGAUAUGUUGUAGUAAACAUGAGGAUCACCCAUGUGGAUUAUAUAAGAUUCACAGAAGGGCACUGCAUUGC [Laonis] | 265 | 226 |
| AAAUGACAUGAGGAUCACCCAUGUCCACCAAACGGAGGAUAUUGGGCGGCAAAACGUUGUUAAGAAGGCCGAAAAA [SS1-1.1] | 60 | 28 |
| AAUAUAUUAAGUGAGGAUAUCGAGGAAAAAACAUGAGGAUCACCCAUGUGGGAAACAUGGUAGGGUGAGAAGGCACUUAAUAUAU [Samwise Clockwise 24 - Jieux - Same State 2] | 132 | 572 |
| GUGGACAUAGUUCAGGAUAUAUGAAUAGUCACAUGAGGAUCACCCAUGUCCAUUUAUAUGGGCACAUAGAAGGGAGGUAGUUAAC [Mat - Same state - Malcolm Mod - D124] | 451 | 744 |
| AAAAUAUAAAGAGAGGAUAUCCAAAGAACCACAUGAGGAUCACCCAUGUAAAGAAAGAAUAAGUGGGAGAAGGCUCAAAUAAUAA [Designing denovo 24] | 27.5 | 99.8 |
| AGAAUAAAAAGAGAGGAUAUCCAUAAGAAAACAUGAGGAUCACCCAUGUGAAAGAUAAUAAGAUGGGAGAAGGCUCAAAAUAAGA [Topaz 46] | 20.3 | 49.5 |
| AUGGUCAAGUGUGAGGAUAUCCAGGCUCCCACAUGAGGAUCACCCAUGUUUUAAAGAGCGUAAAGGGAGAAGGUACGAACGCCAC [Isorvere] | 15.4 | 21.9 |
| AUACUACAUGAGGAUCACCCAUGUUGAAAUAUGGAAGGAUAUACGUAGUAAAAUAACUACGUAGAAGGUCCAGAAA [SS1 MT 22] | 18.7 | 19.6 |
| AAAAGACAUGAGGAUCACCCAUGUAAAAACAUAGGAGGAUAUGUCUGGAAACCAGACUGGACAGAAGGCCUUUGUC [SS1 - 63] | 24.8 | 29.4 |
| AAAUAAAUGACUGAGGAUAUAUCGAUGAAUACAUGAGGAUCACCCAUGUGAUAAUAAAAAGGGUGGUAGAAGGUAGUCAACAAAC [Mod 13 of Pariah 4 by Hyphema in Round 1] | 95.9 | 71.9 |
| UUACGUACGUAUGAGGAUAUCCAUAAUAAGACAUGAGGAUCACCCAUGUAAACAAAACAAUAAUGGGAGAAGGCAUACGUACGAA [Mat - Same state - Malcolm Mod - D135] | 23.2 | 47.3 |
| UAAAAACAUGAGGAUCACCCAUGUGAGAACAUGGGAGGAUAUACAAGGACGAAAGUCAAGGUAGAAGGCCUAAAAU [Mat - Same State 1 - Mod - D175] | 160 | 29.3 |
| AGAAAUAAAUGAGAGGAUAUCCAAAAGAAAACAUGAGGAUCACCCAUGUAAAAGAAAAUAAAGUGGGAGAAGGCUCGAAAUAAAG [80%, More Helter Skelter 2] | 23.3 | 43.5 |
| AACAUACAUGAGGAUCACCCAUGUUCCGGCAGGGCAGGAUAUCCAUCGAAAGUGUUAUAAGGAGAAGGGCCAUAAA [JR_SS001_Sub013] | 31.7 | 93.3 |
| AAAAUACAUGAGGAUCACCCAUGUGAGUCGAACGCAGGAUAUGCCCGUUGAAAAGGGCGGGCAGAAGGGUGCCGAA [SameState1-IV] | 34.4 | 61.7 |
| GAAAAACAUGAGGAUCACCCAUGUGAGAAUAUGGGAGGAUAUACGAGGACGAGAGUCAAGGUAGAAGGCCUAAAAG [Garnet 75] | 40.5 | 549 |
| GAAAAACAUGAGGAUCACCCAUGUAGAAAUAUGGGAGGAUAUACAAAGACGAAAGUCAAAGUAGAAGGCCUAAAAG [Mat - Mod of Eli] | 23.9 | 69.3 |
| CGUCUACAUGAGGAUCACCCAUGUCAAGAGUGGUCAGGAUAUGGUAUUAGAUGAGUAUGGCCAGAAGGGACAUAAG [JR_SS001_Sub715] | 167 | 386 |
| AAAGACACGGUGCAGGAUAUAUUAAUAGUCACAUGAGGAUCACCCAUGUUCAUUUAUAUGAACGAGUAGAAGGGCGGUGAAAAAA [SameState2 Malc#8] | 174 | 110 |

| Sequence | apparent KD of MS2 coat protein (MS2 coat protein [1]) [nM] | apparent KD of MS2 coat protein (MS2 coat protein [2]) [nM] |
| --- | --- | --- |
| AACAAUCUAUCUGAGGAUAUGUGUCGAAAGACAUGAGGAUCACCCAUGUGAAAACAUGAAAAGACACAGAAGGCAGAUAGAUUGA [SS2: 1154] | 40.2 | 41.5 |
| AGGAAACAUGAGGAUCACCCAUGUAUAAAAAAUACAGGAUAUGGAAACACGAAAGUGAAACCAGAAGGGUAAAAAA [77%, Mat - Mod of Eli, 32] | 15.9 | 39.9 |
| AGCACGCGAUUGGAGGAUAUGUUGUUUGCAACAUGAGGAUCACCCAUGUCUGAGGCUGAAAAGCAGCAGAAGGCCGAUACAACCA [SS2-1.1] | 30.6 | 113 |
| GAAAAACAUGAGGAUCACCCAUGUGAAAAUAUGGAAGGAUAUACAAAGACGAAAGUCAAAGUAGAAGGUCUAAAAG [Mat - Same State 1 - Eli mod - D14] | 15 | 22.5 |
| CGCGGGCCCGGGCAGGAUAUCCGGCCUCGGACAUGAGGAUCACCCAUGUGGCCGAAAGGCCGGUGGGAGAAGGGCCCGGGCCCGC | 20.5 | 23.1 |
| GGUACAUCUAGUUAGGAUAUCAGAUGUAAGACAUGAGGAUCACCCAUGUCCUAAGAAUAGGUAACUGAGAAGGAACAGGGAGUCC [JR_SS002_Sub417] | 36.5 | 29.8 |
| ACAAGACAUGAGGAUCACCCAUGUAAAGAAAACGCAGGAUAUGCAAAAAAAUUCAUGGGUGCAGAAGGGCGAAAAA [Default title] | 153 | 34.2 |
| GAGGACCUAGGAUAGGAUAUGUGAAUAAUUACAUGAGGAUCACCCAUGUCCAUUUAUAUGGGAACAUAGAAGGGUUUUGGUUAUC [SameState2 Malc#39] | 232 | 180 |
| CGGAGACAUGAGGAUCACCCAUGUGAGAAGAGGCGAGGAUAUCGAAAGAAAGAAGAGAAACGAGAAGGCGCGAGGG [salish99-SS1-075] | 18.3 | 27.7 |
| AUAAGACAUGAGGAUCACCCAUGUAUAAGAGCAUGAGGAUAUAUGAAAAGUAAUAGGAGAAUAGAAGGCAUAGUUG [JR_SS001_Sub1220] | 80.7 | 92.4 |
| AAGAAUUAAACGCAGGAUAUGUACCCACGUACAUGAGGAUCACCCAUGUGCCUAUAAGGGUCGAGGCAGAAGGGCGAUAUAGAAA [Reteriusge] | 15.8 | 81.2 |
| AUAAUAUUAAGCAAGGAUAUACUAAAGUAAACAUGAGGAUCACCCAUGUGAAAAAAAAAACUCAUGUAGAAGGUGCAUAAAUAAA [moonwalk 11] | 23.9 | 50 |
| AAGUCACAUGAGGAUCACCCAUGUCGUAAACGAUGAGGAUAUAGGAACGAAAGAAAAAAACUAGAAGGUAUAACAA [SameState1-03] | 28.8 | 26.7 |
| AAAAUAUAAAGGAAGGAUAUCCAAAGGACUACAUGAGGAUCACCCAUGUAAAGAAAGAAUAAAUGGGAGAAGGUCCAAAUAAUAA [Designing denovo 32] | 44 | 180 |
| GUAUAUAUGAGGUAGGAUAUCCAAAAUAAAACAUGAGGAUCACCCAUGUAAAUAAAUAAUAAAUGGGAGAAGGACCACAUAUAUAC [Ex6 sub 3] | 16.2 | 34.2 |
| AAAAGACAUGAGGAUCACCCAUGUCAAGACGUAGGAGGAUAUGUCUUGAAAAAAGACUUGACAGAAGGCCUGUGUC [SS1 - 55] | 14.9 | 18.1 |
| AAAUAAAUGACUAAGGAUAUAUCGAAGAAGACAUGAGGAUCACCCAUGUAAUAAUAAAAAGGGUGGUAGAAGGUAGUCAACAAAC [Mod 6 of Pariah 4 by Hyphema in Round 1] | 156 | 233 |
| AUAUGAUCAUGUGAGGAUAUCCAUAAUAAAACAUGAGGAUCACCCAUGUAUAGAUACUAAUAAUGGGAGAAGGCACAUGAUCAAU [SS 2 M43] | 19.9 | 24 |
| AGAAAUAAAAGAGAGGAUAUCCAAAAGAAAACAUGAGGAUCACCCAUGUAAAAGAAAAUAAAAUGGGAGAAGGCUCAUAUUAAAG [JL Skelter 2 mod 3] | 44.9 | 146 |
| AAAAAAAAAACUCAGGAUAUAGAUCGUUGAACAUGAGGAUCACCCAUGUAGUGAAAAGCGAAAAACUAGAAGGGAGGAAAAAAAAA [SameState2-02] | 13.3 | 28.7 |
| ACAAAUAAAAGAGAGGAUAUCCAAAAGAAAACAUGAGGAUCACCCAUGUGAAAGAAAAUAAAAUGGGAGAAGGCUCAGAAUAAUA [Topaz 30] | 16.4 | 83.2 |

Source: the supplement of paper PMC9170038
